B1: antibody 410 (antibody, V domains shown)
VH: QVQLVQSGAEVKKPGASVKVSCKASGYTFTSYGISWVRQAPGQGLEWMGWISAYNGNTNYAQKLQGRVTMTTDTSTSTAYMELRSLRSDDTAVYYCARGRITIFGVEYYYGMDVWGQGTTVTVSS
VL: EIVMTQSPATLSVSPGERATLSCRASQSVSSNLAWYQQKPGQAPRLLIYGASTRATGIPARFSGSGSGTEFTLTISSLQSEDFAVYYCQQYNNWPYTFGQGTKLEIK
B2: antibody 387 (antibody, V domains shown)
VH: QVQLVESGGGVVQPGRSLRLSCAASGFTFSSYGMHWVRQAPGKGLEWVAVISYDGSNKYYADSVKGRFTISRDNSKNTLYLQMNSLRAEDTAVYYCAKDDTKNYGDLDIDYWGQGTLVTVSS
VL: SYELTQPSSVSVSPGQTARITCSGDVLAKKYARWFQQKPGQAPVLVIYKDSERPSGIPERFSGSSSGTTVTLTISGAQVEDEADYYCYSAADNNLGVFGGGTKLTVL
B3: antibody 391 (antibody, V domains shown)
VH: EVQLVESGGGLVQPGGSLRLSCAASGFTFSSYWMHWVRQAPGKGLVWVSRINSDGSSTSYADSVKGRFTISRDNAKNTLYLQMNSLRAEDTAVYYCALGPLDIVGSYYYYGMDVWGQGTTVTVSS
VL: NFMLTQPHSVSESPGKTVTISCTGSSGSIASNYVQWYQQRPGSAPTTVIYEDNQRPSGVPDRFSGSIDSSSNSASLTISGLKTEDEADYYCQSYDSSNQDVVFGGGTKLTVL
B4: antibody 401 (antibody, V domains shown)
VH: QVQLVQSGAEVKKPGSSVKVSCKASGGTFSSYAISWVRQAPGQGLEWMGRIIPILGIANYAQKFQGRVTIIADKSTSTAYMELSSLRSEDKAVYYCAREGKSDSSSALWYFDLWGRGTLVTVSP
VL: not shown
B5: antibody 399 (antibody, V domains shown)
VH: QVQLVQSGAEVKKPGASVKVSCKASGYTFTSYGISWVRQAPGQGLEWMGWISAYNGNTNYAQKLQGRVTMTTDTSTSTAYMELRSLRSDDTAVYYCARDSGYDWAGGHYYYYGMDVWGQGTTVTVSS
VL: QSALTQPASVSGSPGQSITISCTGTSSDVGGYNYVSWYQQHPGKAPKLMIYEVSNRPSGVSNRFSGSKSGNTASLTISGLQAEDEADYYCSSYTSSSTLVVFGGGTKLTVL
B6: antibody 404 (antibody, V domains shown)
VH: QVQLVESGGGVVQPGRSLRLSCAASGFTFSSYGMHWVRQAPGKGLEWVAVIWYDGSNKYYADSVKGRFTISRDNSKNTLYLQMNSLRAEDTAVYYCARLAVDISFDGSDGMDVWGQGTTVTVSS
VL: SYELTQPPSVSVSPGQTARITCSGDALPKKYAYWYQQKSGQAPVLVIYEDSKRPSGIPERFSGSSSGTMATLTISGAQVEDEADYYCYSTDSSGKGVFGTGTKVTVL
B7: antibody 402 (antibody, V domains shown)
VH: QVQLVQSGAEVKKPGASVKVSCKVSGYTLTELSMHWVRQAPGKGLEWMGGFDPEDVETIYAQKFQGRVTMTEDTSTDTAYMELSSLRSEDTAVYYCATGVAVVGTSHSYYYYYGMDVWGQGTTVTVSS
VL: DIQMTQSPSSLSASVGDRVTITCRASQGISNYLAWYQQKPGKVPKLLIYAASTLQSGVPSRFSGSGSGTDFTLTISSLQPEDVATYYCQKYNSAPFTFGPGTKVDIK
B8: antibody 394 (antibody, V domains shown)
VH: QVQLVQSGAEVKKPGASVKVSCKASGYTFTGYYMHWVRQAPGQGLEWMGWINPNNGGTNSAQKFQGRVTMTRDTSISTAYMELNRLRSDDTAVYYCARDITTTAGTDYYYGMDVWGQGTTVTVSS
VL: SYELTQPPSVSVSPGQTARITCSGDALPKQYAYWYQQKPGQAPVLVICKDSERPSGIPERFSGSSSGTTVTLTISGVQAEDEADYYCQSADSSGTYIVFGTGTKVTVL
B9: antibody 397 (antibody, V domains shown)
VH: QVQLVESGGGVVQPGRSLRLSCAASGFTFSSYGMHWVRQAPGKGLESVAVISYDGSNKYYADSVKGRFTISRDNSKNTLYLQMNSLRAEDTAVYYCAKEGQWELQGNAFDIWGQGTMVTVSS
VL: B8 VL with C48Y, A90G, I97R, T101G, V105L
B10: antibody 381 (antibody, V domains shown)
VH: QVQLVESGGGVVQPGRSLRLSCAASGFTFSSYAMHWVRQAPGKGLEWVAVISYDGSNKYYADSVKGRFTISRDNSKNTLYLQMNSLRAEDTAVYYCARDRQYYDILTGYYLPTSEYYFDYWGQGTLVTVSS
VL: DIQMTQSPSSVSASVGDRVTITCRASQGISSWLAWYQQKPGKAPKLLIYAASSLQSGVPSRFSGSGSGTDFTLTISSLQPEDFATYYCQQANSFPPTFGGGTKVEIK
B11: antibody 433 (antibody, V domains shown)
VH: QVQLVESGGGVVQPGRSLRLSCAASGFTFSSYAMHWVRQAPGKGLEWVAVISYDGSNKYYADSVKGRFTISRDNSKNTLYLQMNSLRAEDTAVYYCAKDYEVVIAIGGPGAFDYWGQGTLVTVSS
VL: SYVLTQPPSVSVAPGKTARITCGGNNIGSKSVHWYQQKPGQAPVLVIYYDSDRPSGIPERFSGSNSGNTATLTISRVEAGDEADYYCQVWDSSSDHVVFGGGTKLTVL
B12: antibody 440 (antibody, V domains shown)
VH: EVQLLESGGGLVQPGGSLRLSCAASGFTFSSYAMSWVRQAPGKGLEWVSAISGSGVNTYHADSVKGRFTISRDNSRNTLYLQMSSLTAEDTAAYYCAKDFEAASGAYYYYGMDVWGQGTTVTVSS
VL: B8 VL with K29D, L45V, C48Y, S51R, S65N, G94A, I97V, T101G, V105L
B13: antibody 430 (antibody, V domains shown)
VH: QVHLVEAGGGVVQPGKSLRLSCAASGFIFSNFGMHWVRQSPGKGLEWVAVVSYDASVTKYSDSFEGRFTISRDNSKNTLYLQMDSLRPEDSAVYYCAKGQGANLLHDWGQGILVTVSS
VL: DVVLTQSPLSLPVTLGQPASISCRSSESLVYTDGDTYLHWFHQRPGQSPRRLIYKVSNRDSGVPDRFSGSGSGTDFTLRISRVEAEDVGVYYCMQGTHWPFTFGPGTKVDIK
B14: antibody 438 (antibody, V domains shown)
VH: EVQLVESGGGLVQPGGSLRLSCAASGFTFSSYSMNWVRQAPGKGLEWVSYISSSSSTIYYADSVKGRFTISRDNAKNSLYLQMNSLRAEDTAVYYCARDRGYSDYGPYYYGMDVWGQGTTVTVSS
VL: not shown

Substitutions are numbered along the chain they refer to.

In one assay the target is SARS-CoV-2 full length spike protein, V367F mutant, expressed on CHO cells (SARS-CoV-2, UniProt P0DTC2 14-1273).
Regarding B1, the “median fluorescence fold over isotype control” value (from here on “median fluorescence fold”) was 7.64 fold over isotype.
Still for that read-out and setting: for B2 the value was 6.69 fold over isotype; for B3, 18.8 fold over isotype; for B4, 35.5 fold over isotype.
On the same count and under the same terms, for B5 the value was 30.6 fold over isotype; for B6, 27.4 fold over isotype.
The same measure, in the same setting: under B7 stands 46.9 fold over isotype; under B8, 37.8 fold over isotype.
Take B9: the “median fluorescence fold” value was determined as 32.8 fold over isotype.
Same read-out and setting: for B10 the value was 43.6 fold over isotype.

A further assay addresses SARS-CoV-2 full length spike protein, D614G mutant, expressed on CHO cells (SARS-CoV-2, UniProt P0DTC2 14-1273).
For the molecule B1, the “median fluorescence fold” value turned out to be 17.9 fold over isotype.
On the same count and under the same terms, for B2 the value was 15.9 fold over isotype; for B3, 35.6 fold over isotype; for B4, 8.76 fold over isotype.
As to B5, the “median fluorescence fold” value was found to be 70.1 fold over isotype.
On the same count and under the same terms, for B6 the value was 6.02 fold over isotype.
The same measure, in the same setting: under B7 stands 67.8 fold over isotype.
Regarding B8, the “median fluorescence fold” value stood at 63.4 fold over isotype.
On the same count and under the same terms, for B9 the value was 7.97 fold over isotype; for B10, 67.9 fold over isotype.

The target in another assay is SARS-CoV-2 full length spike protein, V367F mutant (SARS-CoV-2, UniProt P0DTC2 14-1273).
B11: the “median fluorescence fold” value turned out to be 12.3 fold over isotype.
On the same count and under the same terms, for B12 the value was 7.17 fold over isotype; for B13, 38.3 fold over isotype.
On the same count and under the same terms, under B14 stands 44 fold over isotype.

Another assay concerns the target SARS-CoV-2 full length spike protein, D614G mutant (SARS-CoV-2, UniProt P0DTC2 14-1273).
Regarding B11, the “median fluorescence fold” value was 23.1 fold over isotype.
On the same count and under the same terms, for B12 the value was 15.8 fold over isotype; for B13, 9.17 fold over isotype; for B14, 71.2 fold over isotype.
